For assay [1], the target named is Mcm2-7 helicase labeled at the N terminus of Mcm6 with DyLight 650 (Mcm2-7^6N-650), used as Mcm2-7-Cdt1 (S. cerevisiae) (UniProt P29469). As to the kind of experiment: FRET or BRET; single-molecule FRET with colocalisation (CoSMoS), Orc6-tether assay: donor DyLight 550 on Orc6 of ORC, acceptor DyLight 650 at the N terminus of Mcm6 of Mcm2-7; origin DNA attached to the slide; 0.5 to 1 nM ORC, 3 to 10 nM Cdc6, 10 to 15 nM Mcm2-7-Cdt1; 25 mM HEPES-KOH pH 7.6, 300 mM potassium glutamate, 5 mM Mg(OAc)2, 3 mM ATP; only events with ORC and Mcm2-7 both on DNA for at least five frames; the high E_FRET state is read as the Orc6N-Mcm2-7N (tether) interaction. A general note: In BRET a luciferase serves as donor, and the signal depends on an acceptor being close.

In assay [2] the target is Mcm2-7^6N-650 in complex with Cdt1 labeled with DyLight 650 (Mcm2-7^6N-650-Cdt1^C-650) (S. cerevisiae) (UniProt P29469).
Assay [3] shares this target. This is another data set of the same source.
For assay [4] the target is unchanged. The assay can be described thus: FRET or BRET; single-molecule FRET with colocalisation (CoSMoS), Orc6-tether assay: donor DyLight 550 on Orc6 of ORC, acceptor DyLight 650 at the N terminus of Mcm6 of Mcm2-7; origin DNA attached to the slide; 0.5 to 1 nM ORC, 3 to 10 nM Cdc6, 10 to 15 nM Mcm2-7-Cdt1; 25 mM HEPES-KOH pH 7.6, 300 mM potassium glutamate, 5 mM Mg(OAc)2, 3 mM ATP; only events with ORC and Mcm2-7 both on DNA for at least five frames; the high E_FRET state is read as the Orc6N-Mcm2-7N (tether) interaction.

For assay [5] the target is unchanged. The source holds these as a separate data set.

Where only a bound is given, the exact number is not on record here.

For “CDK-phosphorylated ORC^6N-550 (Orc2 and Orc6 phosphorylated), P54784 1-914; P32833 1-620; P54790 1-616; P54791 1-529; P50874 1-479; P38826 1-435”, in assay [1], the lifetime of the tether interaction, fold shorter than unphosphorylated ORC turned out to be 2.5 fold; the median time of tether formation, fold of unphosphorylated ORC is more than 2 fold; the percent of recruited Mcm2-7 that exhibited a stable high E FRET (tether) state worked out at 53.9%.
In turn, “ORC that lacks Orc6N and has the Orc6 lnk1 region scrambled, labeled with DyLight 550 (ORC^6ΔN-lnk1scr-550) (from UniProt P54784 1-914; P32833 1-620; P54790 1-616; P54791 1-529; P50874 1-479; P38826 1-435) (complex)” registered a percent of stably recruited Mcm2-7 that reached the high E FRET (tether) state in assay [1] of 4.4%. Besides, in assay [2], the ORC molecules released within 7.8 s (three frames) after Cdt1 release was 83% and the ORC molecules retained for more than 100 s on DNA after Cdt1 release (of 106 molecules) is 0.
The matching figures for “ORC that lacks the Orc6 N-terminal domain, labeled with DyLight 550 (ORC^6ΔN-550) (from UniProt P54784 1-914; P32833 1-620; P54790 1-616; P54791 1-529; P50874 1-479; P38826 1-435) (complex)”: 82.3%, 80% and 1.
In the case of “ORC with the Orc6 lnk1 region (aa 120 to 185) scrambled, labeled with DyLight 550 (ORC^6-lnk1scr-550) (from UniProt P54784 1-914; P32833 1-620; P54790 1-616; P54791 1-529; P50874 1-479; P38826 1-435) (complex)”, in assay [1], the median lifetime of the tether interaction was found to be 9.7 s and the median time to form the tether interaction, fold of WT ORC came out at 2 fold. In assay [2], the ORC molecules released after 7.8 s after Cdt1 release turned out to be 63% and the ORC molecules retained for longer than 100 s after Cdt1 release was determined as 13%.
In assay [3], “origin recognition complex labeled at the Orc6 N-terminal region with DyLight 550 (ORC^6N-550), P54784 1-914; P32833 1-620; P54790 1-616; P54791 1-529; P50874 1-479; P38826 1-435” gave a median time of ORC retention after Cdt1 release, Orc6 tether interaction absent at the time of Cdt1 release of 3.8 s and a median time of ORC retention after Cdt1 release, Orc6 tether interaction present at the time of Cdt1 release of 23.8 s. This substance displayed a recruitment events in which a high E FRET (tether) state formed (of 162 events) in assay [4] of 152. In assay [1], the median duration of the Orc6N-Mcm2-7N interaction was 26.4 s, the median time to form the high E FRET state after Mcm2-7-Cdt1 recruitment was found to be 7.2 s and the percent of stably recruited Mcm2-7 that reached the high E FRET (tether) state turned out to be 91.5%. Besides, in assay [5], the ORC molecules released within one video frame (~2.6 s) after Cdt1 release, tether interaction present as Cdt1 was released worked out at 25% and the ORC molecules released within one video frame (~2.6 s) after Cdt1 release, tether not present as Cdt1 is released (of 33 molecules) is 16. In addition, in assay [2], the ORC molecules released within 7.8 s (three frames) after Cdt1 release is 39% and the ORC molecules retained for more than 100 s on DNA after Cdt1 release turned out to be 24%.

(Values after paper PMC12541460.)
